Results taken from patent US20260070960A1 (US Dept. of Health and Human Services, published 2026).

B1: single-domain antibody F5 (camel VHH nanobody) (VHH)
VHH: EVQLVESGGGSVQAGGSLRLSCAASGFTFSNNRMGWVRQAPGKGLEWVSDINSSGGVTEYADSVKGRFTISRDNAKNTLYLQLNSLKIEDTAIYYCVYYSYLMRLRPGQGTQVTVSS
notes: also called VHH F5; nanobody F5
B2: single-domain antibody G9 (camel VHH nanobody) (VHH)
VHH: EVQLVESGGGLVQPGGSLRLSCVASGFTFSNNRMGWVRQAPGKGLEWVSDINSSGGVTEYADSVKGRFTISRDNAKNTLYLQLNSLKIEDTAIYYCVYYSYLMRLRPGQGTQVTVSS
notes: also called nanobody G9

Key:
[1] = target: T1, E7 peptide (…) in complex with HLA-A*02:01 on T2 cells (human; human papillomavirus (HPV)); assay: FACS on 293E7 cells, APC-anti-Flag; nanobody concentration not given
T1 construct: whole, on cells

[2] = target: pMHC-E6, HLA-A*02:01-[…] monomer (refolded, soluble) (human; human papillomavirus (HPV))

Row | Binder | binding result [1] | Kd [2]
1 | B1 | no binding | 1500 nM
2 | B2 | no binding | –
